Assay results: doi:10.1101/2024.07.08.602551, “An avidity-driven mechanism of extracellular BMP regulation by Twisted gastrulation” (bioRxiv, 2024)

T1: human ΔN-Chordin (human, UniProt Q9H2X0 127-955)
T1 construct: Chordin, human, truncated form missing the N-terminal vWC1 domain but retaining the C-terminal vWC2-4 domains; source: purified, recombinantly expressed; prepared as described previously (Troilo et al., 2014)
T1 sequence (looked up): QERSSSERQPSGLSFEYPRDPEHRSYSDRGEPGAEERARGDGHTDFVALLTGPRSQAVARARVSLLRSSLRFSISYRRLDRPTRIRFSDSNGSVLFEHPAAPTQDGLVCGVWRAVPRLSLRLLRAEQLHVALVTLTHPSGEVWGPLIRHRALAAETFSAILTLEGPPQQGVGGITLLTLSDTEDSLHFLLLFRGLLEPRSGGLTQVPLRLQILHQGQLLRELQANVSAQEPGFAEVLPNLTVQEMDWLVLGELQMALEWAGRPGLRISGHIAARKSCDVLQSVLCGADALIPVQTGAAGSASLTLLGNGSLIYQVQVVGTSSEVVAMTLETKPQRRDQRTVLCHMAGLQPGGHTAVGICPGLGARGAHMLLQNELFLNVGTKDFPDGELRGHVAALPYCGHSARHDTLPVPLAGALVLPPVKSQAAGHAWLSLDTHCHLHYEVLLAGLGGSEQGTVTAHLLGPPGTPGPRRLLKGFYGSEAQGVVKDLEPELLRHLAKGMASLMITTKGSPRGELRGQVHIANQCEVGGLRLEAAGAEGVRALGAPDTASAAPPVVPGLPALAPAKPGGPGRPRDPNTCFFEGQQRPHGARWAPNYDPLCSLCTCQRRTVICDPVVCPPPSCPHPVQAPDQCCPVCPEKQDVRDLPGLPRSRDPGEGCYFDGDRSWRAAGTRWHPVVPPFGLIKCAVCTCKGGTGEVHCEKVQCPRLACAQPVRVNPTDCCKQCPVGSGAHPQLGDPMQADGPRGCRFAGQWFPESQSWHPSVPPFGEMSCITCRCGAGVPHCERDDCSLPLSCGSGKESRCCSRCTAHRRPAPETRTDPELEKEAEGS


Target: T1, human ΔN-Chordin
Test: SPR; Biacore T200; wildtype or mutant Tsg immobilised on CM5 by amine coupling (350 RU); analyte (ΔN-Chordin or CHRDL2) in a two-fold series, 30 μl/min, 200 s, 300 s dissociation; 20 mM HEPES, 150 mM NaCl, 0.05% Tween20, pH 7.4, 25°C; Langmuir 1:1 fit; triplicate
Details: both partners purified

Kd	Binder
14 nM	human Twisted gastrulation (residues Cys26-Phe223) (natural protein, UniProt Q9GZX9 26-223, looked up, Cloned in the vector pHLsec (Addgene_99845) between AgeI and KpnI; secreted; also called Tsg; human Tsg; source: Expi293-F cells, transfected, purified from conditioned media (Strep-Tactin XT, SEC)) CNKALCASDVSKCLIQELCQCRPGEGNCSCCKECMLCLGALWDECCDCVGMCNPRNYSDTPPTSKSTVEELHEPIPSLFRALTEGDTQLNWNIVSFPVAEELSHHENLVSFLETVNQPHHQNVSVPSNNVHAPYSSDKEHMCTVVYFDDCMSIHQCKISCESMGASKYRWFHNACCECIGPECIDYGSKTVKCMNCMF
60 nM	human Twisted gastrulation Leu107Ala (natural protein, UniProt Q9GZX9 26-223, looked up, Twisted gastrulation (Tsg), human, residues Cys26-Phe223, with the point mutation L107A; Point mutant of m1 made by PCR and In-Fusion cloning; also called Tsg^L107A; source: Expi293-F cells, transfected, purified from conditioned media (Strep-Tactin XT, SEC)) CNKALCASDVSKCLIQELCQCRPGEGNCSCCKECMLCLGALWDECCDCVGMCNPRNYSDTPPTSKSTVEELHEPIPSLFRAATEGDTQLNWNIVSFPVAEELSHHENLVSFLETVNQPHHQNVSVPSNNVHAPYSSDKEHMCTVVYFDDCMSIHQCKISCESMGASKYRWFHNACCECIGPECIDYGSKTVKCMNCMF
